Substitutions are numbered along the chain they refer to. Names may count otherwise.
What was measured:
[1] = tested on: JAK/STAT signaling through STAT3; assay: C-STAR caffeine-inducible STAT3 SEAP reporter assay in HEK-293T cells; format: cell-based, human; conditions: 1 μM concentration; C-STARDB1 cells; FIG. 22
Protocol: All cells were cultured in a humidified atmosphere containing 5% CO2 at 37° C.

WEN1.3 cells = assay: Endogenous IL-10 secretion (ELISA) in WEN1.3 hybridoma cells; format: cell-based; conditions: for Fold change (IL-10 concentration in supernatant): 0 ng vs. 100 ng RR120/mL, 24 h
Protocol: WEN1.3 cells (See Pogson M et al., Nat. Commun., 2016, 7:12535) were cultivated in DMEM (52100039, Thermo Fisher) supplemented with 10% (v/v) heat-inactivated FBS (F7524, lot BCBS0318V, Sigma-Aldrich), 1% (v/v) streptomycin/penicillin (L0022, Biowest), 10 mM HEPES buffer (Ser. No. 15/630,056, Thermo Fisher), and […] 2-mercaptoethanol (M3148, Sigma-Aldrich) in a humidified atmosphere of 5% CO2 in air at 37° C. Cells were transfected by electroporation with program CQ-104 of the 4D-Nucleofector System (Lonza) and the SF Cell Line 4D-Nucleofector X Kit L (V4XC-2024, Lonza).
For each transfection 1×10^6 cells were washed twice by centrifugation for 5 min at 90 g and then resuspended in 1 mL of Opti-MEM I Reduced Serum Medium (31985062, Thermo Fisher); after washing, the cells were resuspended in 100 μL Lonza SF buffer containing 0.5 μg sleeping beauty transposase expression plasmid (pCMV(CAT)T7-SB100) and 9.5 μg of a plasmid for stable integration and expression of JAK/STAT-GEMS (pLeo695) or MAPK-GEMS (pLeo694). After pulsing, 500 μL prewarmed culture medium was added for 10 min. Cells were transferred to 1 mL culture media in 24-well plates (142475, Thermo Fisher) and were grown for 48 h. For creating stable cell lines, cells were transferred to 3 mL culture media in 6-well plates (140675, Thermo Fisher) and were selected with 5 μg/mL puromycin (ANT-PR-1, InvivoGen) for 14 d. For experiments, cells were centrifuged for 5 min at 90 g and resuspended in culture media (with or without RR120) to give a concentration of 1×10^6 cells/mL, and then 500 μL of the cell suspension was transferred per well of a 48-well plate. IL-10 ELISAs (900-TM53, PeproTech) were performed 24 h after induction.

[2] = cited from earlier work
[3] = tested on: NFAT, STAT3 and MAPK signaling; assay: GEMS pathway crosstalk reporters (FIG. 13A-B) in HEK-293T cells; format: cell-based, human
Protocol: Human embryonic kidney cells (HEK-293T, American Type Culture Collection (ATCC): CRL-11268) were cultivated in Dulbecco's modified Eagle's medium (DMEM; 52100039, Thermo Fisher) supplemented with 10% (v/v) FBS (F7524, lot BCBS0318V, Sigma-Aldrich) and 1% (v/v) streptomycin/penicillin (L0022, Biowest) in a humidified atmosphere of 5% CO2 in air at 37° C. For experiments, 1.5×10^6 cells in 12 mL DMEM were seeded into 96-well plates (167008, Thermo Fisher) 24 h before transfection. The transfection mix in each well consisted of 125-130 ng of plasmid DNA mixed with 50 μL FBS and antibiotics-free DMEM and 600 ng of polyethyleneimine (24765-1, Polysciences, Inc.). The transfection mix was prepared separately, incubated for 20 min and then added to the cells for overnight transfection. […] Reporter output was measured 24 h after induction for all experiments. […]
FIGS. 5A-C; FIG. 6A; FIG. 8; FIG. 9; FIGS. 10A-B; FIGS. 11A-C; FIG. 12; FIGS. 13A-B: 600 ng of receptor plasmids (for heterodimeric receptors 300 ng of each subunit) and for STAT readout 150 ng of a STAT3 reporter plasmid (pLS13) and 25 ng of a STAT3 expression vector (pLS15); for MAPK-readout 75 ng of a TetR reporter plasmid (pMF111) and 100 ng of a TetR-Elk1 fusion expression vector (MKp37); for NFAT readout 175 ng of a NFAT reporter plasmid (pHY30) and for NF-κB readout 175 ng of a NF-κB reporter plasmid (pKR32). […]

[4] = tested on: JAK/STAT signaling (STAT3 reporter); assay: GEMS STAT3-responsive SEAP reporter assay in HEK-293T cells; format: cell-based, human; conditions: for Fold change (SEAP reporter): 24 h induction; for Response to erythropoietin: FIG. 5B, with / without F93A modification of EpoR
Protocol: Human embryonic kidney cells (HEK-293T, American Type Culture Collection (ATCC): CRL-11268) were cultivated in Dulbecco's modified Eagle's medium (DMEM; 52100039, Thermo Fisher) supplemented with 10% (v/v) FBS (F7524, lot BCBS0318V, Sigma-Aldrich) and 1% (v/v) streptomycin/penicillin (L0022, Biowest) in a humidified atmosphere of 5% CO2 in air at 37° C. For experiments, 1.5×10^6 cells in 12 mL DMEM were seeded into 96-well plates (167008, Thermo Fisher) 24 h before transfection. The transfection mix in each well consisted of 125-130 ng of plasmid DNA mixed with 50 μL FBS and antibiotics-free DMEM and 600 ng of polyethyleneimine (24765-1, Polysciences, Inc.). The transfection mix was prepared separately, incubated for 20 min and then added to the cells for overnight transfection. In the morning, medium with the transfection mix was exchanged for 130 μL/well medium with different concentrations of the appropriate inducer or no inducer as a negative control. Reporter output was measured 24 h after induction for all experiments. Plasmid amounts used for transfections per set of six wells of a 96-well plate were as follows:
FIG. 3B; FIG. 4B: 5 ng for each receptor subunit or as indicated in the figure, 150 ng STAT3 reporter plasmid (pLS13), 25 ng STAT3 expression vector (pLS15) and […] (or the appropriate amount to make a total of 775 ng) of a plasmid without mammalian promoter (pDF145).
FIGS. 5A-C; FIG. 6A; FIG. 8; FIG. 9; FIGS. 10A-B; FIGS. 11A-C; FIG. 12; FIGS. 13A-B: 600 ng of receptor plasmids (for heterodimeric receptors 300 ng of each subunit) and for STAT readout 150 ng of a STAT3 reporter plasmid (pLS13) and 25 ng of a STAT3 expression vector (pLS15); for MAPK-readout 75 ng of a TetR reporter plasmid (pMF111) and 100 ng of a TetR-Elk1 fusion expression vector (MKp37); for NFAT readout 175 ng of a NFAT reporter plasmid (pHY30) and for NF-κB readout 175 ng of a NF-κB reporter plasmid (pKR32).
SEAP concentrations in cell culture supernatants were quantified in terms of absorbance increase due to hydrolysis of para-nitrophenyl phosphate (pNPP). 80 μL of heat-inactivated (30 min at 65° C., then centrifuged for 1 min, 3,220 g) supernatant was mixed in a 96-well dish with 100 μL of 2×SEAP buffer (20 mM homoarginine, 1 mM MgCl2, 21% (v/v) diethanolamine, pH 9.8) and 20 μL of substrate solution containing 20 mM pNPP (Acros Organics BVBA). Samples were measured at 405 nm with a Tecan Genios PRO multiplate reader (Tecan AG) or an EnVision 2104 multilabel reader (PerkinElmer). SEAP production in vivo was quantified with the chemiluminescence SEAP reporter gene assay (cat. no. 11779842001, Sigma-Aldrich) according to the manufacturer's instructions.

[5] = biological target: SunTag8×-mCherry fusion protein; assay: cell-based or functional assay

## Cn1c(=O)c2[nH]cnc2n(C)c1=O [theophylline]
[1]
  Cross-activation of C-STAR by caffeine analogs: modest cross-activation

## O=S(=O)(O)c1cc(Nc2nc(Cl)nc(Nc3ccc(Nc4nc(Cl)nc(Nc5cc(S(=O)(=O)O)cc6cc(S(=O)(=O)O)c(N=Nc7ccccc7S(=O)(=O)O)c(O)c56)n4)cc3)n2)c2c(O)c(N=Nc3ccccc3S(=O)(=O)O)c(S(=O)(=O)O)cc2c1 [RR120, reactive red 120, reference compound]
WEN1.3 cells; WT WEN1.3 cells (no receptor)
  Fold change (IL-10 concentration in supernatant): 1.1 fold

## Cn1c(=O)c2c(ncn2C)n(C)c1=O [caffeine]
[2]
  Half-life of caffeine in human blood: approximately five

B1: JAK/STAT-GEMSRR120: PSV40-VHHA52-EpoRm-IL-6RBm-pA; optimized chimeric receptor (GEMS device) targeting RR120, JAK/STAT signaling (protein)
chain: VQLQESGGGLVQAGDSLKLSCEASGDSIGTYVIGWFRQAPGKERIYLATIGRNLVGPSDFYTRYADSVKGRFAVSRDNAKNTVNLQMNSLKPEDTAVYYCAAKTTTWGGNDPNNWNYWGQGTQVTVSGEFAPSPSLPDPKFESKAALLASRGSEELLCFTQRLEDLVCFWEEAASSGMDFNYSFSYQLEGESRKSCSLHQAPTVRGSVRFWCSLPTADTSSAVPLELQVTEASGSPRYHRIIHINEVVLLDAPAGLLARRAEEGSHVVLRWLPPPGAPMTTHIRYEVDVSAGNRAGGTQRVEVLEGRTECVLSNLRGGTRYTFAVRARMAEPSFSGFWSAWSEPASLLTASDLDPLILTLSLILVLISLLLTVLALLSAAANKRDLIKKHIWPNVPDPSKSHIAQWSPHTPPRHNFNSKDQMYSDGNFTDVSVVEIEANDKKPFPEDLKSLDLFKKEKINTEGHSSGIGGSSCMSSSRPSISSSDENESSQNTSSTVQASTVVHSGYRHQVPSVQVFSRSESTQPLLDSEERPEDLQLVDHVDGGDGILPRQQYFKQNCSQHESSPDISHFERSKQVSSVNEEDFVRLKQQISDHISQSCGSGQMKMFQEVSAADAFGPGTEGQVERFETVGMEAATDEGMPKSYLPQTVRQGGYMPQ
[3]
  Crosstalk to other signaling pathways: cancelled the interference with MAPK signaling
[4]; 0 ng vs. 1 ng RR120/mL
  Fold change (SEAP reporter): 5.4 fold
[4]; 0 ng vs. 100 ng RR120/mL
  Fold change (SEAP reporter): 45 fold
[4]
  Response to erythropoietin: induced with RR120 but not with erythropoietin
[4]; RR120 as inducer, FIG. 5C
  Ratio of induced versus noninduced SEAP secretion (signal-to-noise ratio): over 40 fold
WEN1.3 cells; FIG. 14
  IL-10 secretion upon GEMS activation by RR120: substantially increased IL-10 secretion
WEN1.3 cells; stable polyclonal WEN1.3 cell line expressing the receptor
  Fold change (IL-10 concentration in supernatant): 1.5 fold

B2: pLeo618: PSV40-VHHA52-EpoR3A-IL-6RBm-pA; receptor with Y759A, without F93A modification (protein)
chain: B1 chain with A222F
[4]
  Response to erythropoietin: respond strongly to erythropoietin

B3: JAK/STAT-GEMSSunTag (pLeo620; scFvαGCN4-EpoRm-IL-6RBm) (receptor, part only; not given: Signal peptide and scFv-EpoR linker, part only)
chain, part: DIVMTQSPSSLSASVGDRVTITCRSSTGAVTTSNYASWVQEKPGKLFKGLIGGTNNRAPGVPSRFSGSLIGDKATLTISSLQPEDFATYFCALWYSNHWVFGQGTKVELKRGGGGSGGGGSGGGGSSGGGSEVKLLESGGGLVQPGGSLKLSCAVSGFSLTDYGVNWVRQAPGRGLEWIGVIWGDGITDYNSALKDRFIISKDNGKNTVYLQMSKVRSDDTALYYCVTGLFDYWGQGTLVTVSAPSPSLPDPKFESKAALLASRGSEELLCFTQRLEDLVCFWEEAASSGMDFNYSFSYQLEGESRKSCSLHQAPTVRGSVRFWCSLPTADTSSAVPLELQVTEASGSPRYHRIIHINEVVLLDAPAGLLARRAEEGSHVVLRWLPPPGAPMTTHIRYEVDVSAGNRAGGTQRVEVLEGRTECVLSNLRGGTRYTFAVRARMAEPSFSGFWSAWSEPASLLTASDLDPLILTLSLILVLISLLLTVLALLSAAANKRDLIKKHIWPNVPDPSKSHIAQWSPHTPPRHNFNSKDQMYSDGNFTDVSVVEIEANDKKPFPEDLKSLDLFKKEKINTEGHSSGIGGSSCMSSSRPSISSSDENESSQNTSSTVQASTVVHSGYRHQVPSVQVFSRSESTQPLLDSEERPEDLQLVDHVDGGDGILPRQQYFKQNCSQHESSPDISHFERSKQVSSVNEEDFVRLKQQISDHISQSCGSGQMKMFQEVSAADAFGPGTEGQVERFETVGMEAATDEGMPKSYLPQTVRQGGYMPQ
[5]
  Fold change of MAPK reporter (NanoLuc), 0% vs. 0.002 % (v/v) bacterial lysate (SunTag), cells co-transfected with MAPK-GEMSRR120 (Y677F), FIG. 13C: 1.3 fold
  Fold change of SEAP, 0 % vs. 0.002 % (v/v) bacterial lysate (SunTag), FIG. 10A: 6.9 fold
  Fold change of SEAP, 0 % vs. 0.02 % (v/v) bacterial lysate (SunTag), FIG. 10A: 30 fold
  Fold change of STAT3 reporter (SEAP), 0% vs. 0.002 % (v/v) bacterial lysate (SunTag), cells co-transfected with MAPK-GEMSRR120 (Y677F), FIG. 13C: 12.9 fold
  Fold change of STAT3 reporter (SEAP), no inducer vs. 100 ng RR120/mL + 0.002 % (v/v) bacterial lysate (SunTag), cells co-transfected with MAPK-GEMSRR120 (Y677F), FIG. 13C: 14.9 fold

— patent US20200216514A1, “Generalized Extracellular Molecule Sensor” (ETH ZURICH, priority 2019, published 2020)
